Results reported in the supplement of paper PMC11246515.
± gives the standard deviation of the averaged measurements.

Assay: total protein half-life in vivo (active degradation + dilution); higher = more stable protein
[1] = E. coli NCM3722 delta-clpP delta-lon delta-hslV, growth: N-lim chemostat, doubling time 6 h
[2] = E. coli NCM3722 delta-clpP, growth: N-lim chemostat, doubling time 6 h
[3] = E. coli NCM3722 delta-hslV, growth: N-lim chemostat, doubling time 6 h
[4] = E. coli NCM3722 delta-lon, growth: N-lim chemostat, doubling time 6 h
[5] = E. coli NCM3722 delta-smpB, growth: N-lim chemostat, doubling time 6 h
[6] = wild type E. coli NCM3722, growth: C-lim chemostat, doubling time 3 h
[7] = wild type E. coli NCM3722, growth: C-lim chemostat, doubling time 6 h
[8] = wild type E. coli NCM3722, growth: C-lim chemostat, doubling time 12 h
[9] = wild type E. coli NCM3722, growth: N-lim chemostat, doubling time 6 h
[10] = wild type E. coli NCM3722, growth: N-lim chemostat, doubling time 12 h
[11] = wild type E. coli NCM3722, growth: P-lim chemostat, doubling time 6 h
[12] = wild type E. coli NCM3722, growth: P-lim chemostat, doubling time 12 h

| Sequence | total protein half-life in vivo [1] [h] | total protein half-life in vivo [2] [h] | total protein half-life in vivo [3] [h] | total protein half-life in vivo [4] [h] | total protein half-life in vivo [5] [h] | total protein half-life in vivo [6] [h] | total protein half-life in vivo [7] [h] | total protein half-life in vivo [8] [h] | total protein half-life in vivo [9] [h] | total protein half-life in vivo [10] [h] | total protein half-life in vivo [11] [h] | total protein half-life in vivo [12] [h] |
| --- | --- | --- | --- | --- | --- | --- | --- | --- | --- | --- | --- | --- |
| MKNSKAILQVPGTMKIISAEIPVPKEDEVLIKVEYVGICGSDVHGFESGPFIPPKDPNQEIGLGHECAGTVVAVGSRVRKFKPGDRVNIEPGVPCGHCRYCLEGKYNICPDVDFMATQPNYRGALTHYLCHPESFTYKLPDNMDTMEGALVEPAAVGMHAAMLADVKPGKKIIILGAGCIGLMTLQACKCLGATEIAVVDVLEKRLAMAEQLGATVVINGAKEDTIARCQQFTEDMGADIVFETAGSAVTVKQAPYLVMRGGKIMIVGTVPGDSAINFLKINREVTIQTVFRYANRYPVTIEAISSGRFDVKSMVTHIYDYRDVQQAFEESVNNKRDIIKGVIKISD | 4.54 | 4.02 | 2.93 | 3.28 | 3.59 ± 0.58 | 2.63 ± 0.11 | 4.65 ± 0.57 | 8.14 ± 1.7 | 3.39 ± 0.43 | 5.18 ± 0.57 | 4.95 ± 0.44 | 9.79 ± 0.17 |
| MKNVFKALTVLLTLFSLTGCGLKGPLYFPPADKNAPPPTKPVETQTQSTVPDKNDRATGDGPSQVNY [P0ADN6] | 5.56 ± 0.35 | 5.27 ± 1.1 | 6.91 ± 1.1 | 6.29 ± 0.95 | 6.35 ± 0.59 | 2.95 ± 0.47 | 5.25 ± 1.2 | > 16 | 6.03 ± 1.2 |  |  | 11.8 ± 0.15 |
| MKNVGDLMQRLQKMMPAHIKPAFKTGEELLAWQKEQGAIRSAALERENRAMKMQRTFNRSGIRPLHQNCSFENYRVECEGQMNALSKARQYVEEFDGNIASFIFSGKPGTGKNHLAAAICNELLLRGKSVLIITVADIMSAMKDTFRNSGTSEEQLLNDLSNVDLLVIDEIGVQTESKYEKVIINQIVDRRSSSKRPTGMLTNSNMEEMTKLLGERVMDRMRLGNSLWVIFNWDSYRSRVTGKEY [P0AEF0] | 3.95 ± 0.25 | 2.75 ± 0.059 | 2.11 ± 0.34 | 2.64 ± 0.32 | 2.33 ± 0.07 | 2.05 ± 0.26 | 4.67 ± 0.49 | 5.08 ± 0.67 | 2.18 ± 0.26 | 3.42 ± 0.18 | 3.49 ± 0.45 | 7.41 ± 2.5 |
| MKPFLRWCFVATALTLAGCSNTSWRKSEVLAVPLQPTLQQEVILARMEQILASRALTDDERAQLLYERGVLYDSLGLRALARNDFSQALAIRPDMPEVFNYLGIYLTQAGNFDAAYEAFDSVLELDPTYNYAHLNRGIALYYGGRDKLAQDDLLAFYQDDPNDPFRSLWLYLAEQKLDEKQAKEVLKQHFEKSDKEQWGWNIVEFYLGNISEQTLMERLKADATDNTSLAEHLSETNFYLGKYYLSLGDLDSATALFKLAVANNVHNFVEHRYALLELSLLGQDQDDLAESDQQ [P0AFB1] | 6.43 ± 0.4 | 6.3 ± 0.2 |  | 6.621 ± 0.019 | 6.66 ± 1.2 | 3.15 ± 0.24 | 5.9 ± 0.35 | 11.3 ± 0.48 | 6.12 ± 0.22 | 13.5 ± 2 | 7.56 ± 0.19 | 13.1 ± 0.29 |
| MKPGCTLFFLLCSALTVTTEAHAQTPDTATTAPYLLAGAPTFDLSISQFREDFNSQNPSLPLNEFRAIDSSPDKANLTRAASKINENLYASTALERGTLKIKSIQMTWLPIQGPEQKAAKAKAQEYMAAVIRTLTPLMTKTQSQKKLQSLLTAGKNKRYYTETEGALRYVVADNGEKGLTFAVEPIKLALSESLEGLNK | 6.2 ± 0.26 | 5.91 ± 0.5 | 5.05 ± 0.18 | 5.3822 ± 0.0028 | 5.12 ± 0.43 | 2.86 ± 0.12 | 5.26 ± 1.2 | 8.36 ± 0.16 | 4.14 ± 0.39 | 8.35 ± 1.6 | 3.75 ± 0.27 | 8.75 ± 1.1 |
| MKPRQRQAAILEYLQKQGKCSVEELAQYFDTTGTTIRKDLVILEHAGTVIRTYGGVVLNKEESDPPIDHKTLINTHKKELIAEAAVSFIHDGDSIILDAGSTVLQMVPLLSRFNNITVMTNSLHIVNALSELDNEQTILMPGGTFRKKSASFHGQLAENAFEHFTFDKLFMGTDGIDLNAGVTTFNEVYTVSKAMCNAAREVILMADSSKFGRKSPNVVCSLESVDKLITDAGIDPAFRQALEEKGIDVIITGESNE |  | 6.55 ± 0.26 | 5.66 ± 0.25 | 6.11 ± 1 | 6.36 ± 0.59 | 3.36 ± 0.46 | 6.64 ± 0.39 | 12.6 ± 2.2 | 6.06 ± 0.35 | 13 ± 0.2 | 5.82 ± 0.56 | 12.5 ± 0.15 |
| MKPSSSNSRSKGHAKARRKTREELDQEARDRKRQKKRRGHAPGSRAAGGNTTSGSKGQNAPKDPRIGSKTPIPLGVTEKVTKQHKPKSEKPMLSPQAELELLETDERLDALLERLEAGETLSAEEQSWVDAKLDRIDELMQKLGLSYDDDEEEEEDEKQEDMMRLLRGN [P0A8H6] | 5.38 ± 0.29 | 5.18 ± 0.7 | 4.08 ± 0.55 | 3.93 ± 0.22 | 4.09 ± 1.7 | 2.52 ± 0.0028 | 4.36 ± 0.45 | 7.24 ± 1.8 | 3.59 ± 0.17 | 5.58 ± 1 | 2.98 | 5.38 ± 0.71 |
| MKPSVILYKALPDDLLQRLQEHFTVHQVANLSPQTVEQNAAIFAEAEGLLGSNENVNAALLEKMPKLRATSTISVGYDNFDVDALTARKILLMHTPTVLTETVADTLMALVLSTARRVVEVAERVKAGEWTASIGPDWYGTDVHHKTLGIVGMGRIGMALAQRAHFGFNMPILYNARRHHKEAEERFNARYCDLDTLLQESDFVCLILPLTDETHHLFGAEQFAKMKSSAIFINAGRGPVVDENALIAALQKGEIHAAGLDVFEQEPLSVDSPLLSMANVVAVPHIGSATHETRYGMAACAVDNLIDALQGKVEKNCVNPHVAD | 4.9 ± 1.3 | 4.12 ± 0.17 | 3.82 ± 0.29 | 5.02 ± 0.68 | 3.89 ± 0.12 | 2.95 ± 0.11 | 5.5 ± 0.48 | 8.92 ± 0.31 | 4.03 ± 0.16 | 6.22 ± 0.18 | 5.53 ± 0.1 | 11.1 ± 0.45 |
| MKPTTISLLQKYKQEKKRFATITAYDYSFAKLFADEGLNVMLVGDSLGMTVQGHDSTLPVTVADIAYHTAAVRRGAPNCLLLADLPFMAYATPEQAFENAATVMRAGANMVKIEGGEWLVETVQMLTERAVPVCGHLGLTPQSVNIFGGYKVQGRGDEAGDQLLSDALALEAAGAQLLVLECVPVELAKRITEALAIPVIGIGAGNVTDGQILVMHDAFGITGGHIPKFAKNFLAETGDIRAAVRQYMAEVESGVYPGEEHSFH | 6.05 ± 0.05 | 5.86 ± 0.2 | 6.34 ± 0.95 | 6.74 ± 0.46 | 6.04 ± 0.64 | 2.96 ± 0.031 | 6.93 ± 0.31 | 12.5 ± 2.7 | 5.51 ± 0.51 | 12.3 ± 2.8 | 6.42 ± 1.1 |  |
| MKQGLQLRLSQQLAMTPQLQQAIRLLQLSTLELQQELQQALESNPLLEQIDTHEEIDTRETQDSETLDTADALEQKEMPEELPLDASWDTIYTAGTPSGTSGDYIDDELPVYQGETTQTLQDYLMWQVELTPFSDTDRAIATSIVDAVDETGYLTVPLEDILESIGDEEIDIDEVEAVLKRIQRFDPVGVAAKDLRDCLLIQLSQFDKTTPWLEEARLIISDHLDLLANHDFRTLMRVTRLKEDVLKEAVNLIQSLDPRPGQSIQTGEPEYVIPDVLVRKHNGHWTVELNSDSIPRLQINQHYASMCNNARNDGDSQFIRSNLQDAKWLIKSLESRNDTLLRVSRCIVEQQQAFFEQGEEYMKPMVLADIAQAVEMHESTISRVTTQKYLHSPRGIFELKYFFSSHVNTEGGGEASSTAIRALVKKLIAAENPAKPLSDSKLTSLLSEQGIMVARRTVAKYRESLSIPPSNQRKQLV | 5.34 ± 0.089 | 4.45 ± 0.42 | 3.48 ± 0.12 | 4.78 ± 0.64 | 3.657 ± 0.022 | 2.57 ± 0.1 | 4.75 ± 0.098 | 7.27 ± 1.6 | 3.94 ± 0.43 | 5.68 ± 0.088 | 3.61 ± 0.56 | 6.22 ± 0.58 |
| MKQHQSADNSQGQLYIVPTPIGNLADITQRALEVLQAVDLIAAEDTRHTGLLLQHFGINARLFALHDHNEQQKAETLLAKLQEGQNIALVSDAGTPLINDPGYHLVRTCREAGIRVVPLPGPCAAITALSAAGLPSDRFCYEGFLPAKSKGRRDALKAIEAEPRTLIFYESTHRLLDSLEDIVAVLGESRYVVLARELTKTWETIHGAPVGELLAWVKEDENRRKGEMVLIVEGHKAQEEDLPADALRTLALLQAELPLKKAAALAAEIHGVKKNALYKYALEQQG | 6.24 ± 1.1 | 5.77 ± 0.73 | 5.85 ± 0.46 | 5.1 ± 0.5 | 5.25 ± 0.13 | 3.41 ± 0.11 |  | 11.8 ± 2.3 | 5.57 ± 0.17 | 10.5 ± 0.56 | 5.46 ± 0.11 | 12.4 ± 0.41 |
| MKQQIQLRRREVDETADLPAELPPLLRRLYASRGVRSAQELERSVKGMLPWQQLSGVEKAVEILYNAFREGTRIIVVGDFDADGATSTALSVLAMRSLGCSNIDYLVPNRFEDGYGLSPEVVDQAHARGAQLIVTVDNGISSHAGVEHARSLGIPVIVTDHHLPGDTLPAAEAIINPNLRDCNFPSKSLAGVGVAFYLMLALRTFLRDQGWFDERNIAIPNLAELLDLVALGTVADVVPLDANNRILTWQGMSRIRAGKCRPGIKALLEVANRDAQKLAASDLGFALGPRLNAAGRLDDMSVGVALLLCDNIGEARVLANELDALNQTRKEIEQGMQIEALTLCEKLERSRDTLPGGLAMYHPEWHQGVVGILASRIKERFHRPVIAFAPAGDGTLKGSGRSIQGLHMRDALERLDTLYPGMMLKFGGHAMAAGLSLEEDKFKLFQQRFGELVTEWLDPSLLQGEVVSDGPLSPAEMTMEVAQLLRDAGPWGQMFPEPLFDGHFRLLQQRLVGERHLKVMVEPVGGGPLLDGIAFNVDTALWPDNGVREVQLAYKLDINEFRGNRSLQIIIDNIWPI | 4.22 ± 0.25 | 3.87 ± 1.1 | 2.23 ± 0.075 | 2.74 ± 0.093 | 2.07 ± 0.028 | 2.11 ± 0.042 | 3.66 ± 0.65 | 4.42 ± 0.24 | 2.25 ± 0.044 | 3.5 ± 0.59 | 2.33 ± 0.37 | 3.89 ± 0.38 |
